The assay addresses Human CGRP (Example 4, isoform not stated) (human) (UniProt P80511). Put plainly: cell-based or functional assay.

This is an account of results in patent WO2007076336A1.

Chain of UniProt P80511 (P80511 2-92 limits assumed): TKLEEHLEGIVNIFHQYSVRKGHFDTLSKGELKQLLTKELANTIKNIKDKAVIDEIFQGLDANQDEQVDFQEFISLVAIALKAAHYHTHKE

“monoclonal antibody C7113 (Sigma-Aldrich, St. Louis, MO)”: the IC50, inhibition of CGRP-induced cAMP in SK-N-MC cells (HTRF) is 0.0101 µM.
